Test results from patent US20030148958A1 (PROCTER AND GAMBLE, published 2003).

T1: CRF2R
T1 sequence (Q13324 whole entry, species assumed, looked up): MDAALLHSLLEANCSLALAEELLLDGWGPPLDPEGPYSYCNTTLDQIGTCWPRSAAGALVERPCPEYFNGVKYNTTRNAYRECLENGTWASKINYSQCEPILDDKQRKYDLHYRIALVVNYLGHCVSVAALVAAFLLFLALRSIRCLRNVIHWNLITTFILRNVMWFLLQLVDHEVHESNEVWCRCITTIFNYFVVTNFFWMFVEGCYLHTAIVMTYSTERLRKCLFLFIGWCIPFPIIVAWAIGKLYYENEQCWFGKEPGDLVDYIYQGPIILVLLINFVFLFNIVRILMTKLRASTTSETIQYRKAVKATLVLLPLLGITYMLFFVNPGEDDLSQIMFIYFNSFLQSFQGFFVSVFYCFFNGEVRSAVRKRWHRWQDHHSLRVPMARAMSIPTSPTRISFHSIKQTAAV


Tests used:
CRF2R = target: T1, CRF2R; test: cell-based or functional assay
CRF1R = test: cell-based or functional assay
Throughout, for CRF1R Emax %: reference of the scale not given here.
Throughout, for CRF2R Emax %: reference of the scale not given here.

| CRF2R EC50 (CRF2R) [µM] | CRF2R Emax % (CRF2R) [%] | CRF1R EC50 (CRF1R) [µM] | CRF1R Emax % (CRF1R) [%] | Binder |
| --- | --- | --- | --- | --- |
| 0.1 | 36 | 0.708 | 6 | ZGPPISIDVPIGLLRKMIEIEKQEKEKQQAANNRLLLDTI (not fully specified; C-terminal amide) [SEQ ID NO 254] |
| 0.007 | 100 | 0.0333 | 84 | ZGPPISIDLPFQLLRILIEIEKQEKEKQQAANNRLLLDTI (not fully specified; C-terminal amide) [SEQ ID NO 255] |
| 0.0418 | 86 | 1 | 42 | ZGPPISIDVPTYLLRKMIEIEKQEKEKQQAANNRLLLDTI (C-terminal amide) [SEQ ID NO 253] |
| 0.0223 | 100 | 0.227 | 100 | ZGPPISIDLPTYLLRILIEIEKQEKEKQQAANNRLLLDTI (not fully specified; C-terminal amide) [SEQ ID NO 252] |

Continued, binder first:

| Binder | CRF2R EC50 (CRF2R) [µM] | CRF2R Emax % (CRF2R) [%] | CRF1R EC50 (CRF1R) [µM] | CRF1R Emax % (CRF1R) [%] |
| --- | --- | --- | --- | --- |
| ZGPPISIDLPLYLLRKMIEIEKQEKEKQQAANNALLLDTI (C-terminal amide) [SEQ ID NO 244] | 0.0088 | 98 | 0.299 | 100 |
| ZGPPISIDLPLQLLRKMIEIEKQEKEKQQAANNALLLDTI (not fully specified; C-terminal amide) [SEQ ID NO 248] | 0.0196 | 98 | 1 | 32 |
| ZGPPISIDLPFQLLRKMIEIEKQEKEKQQAANNALLLDTI (C-terminal amide) [SEQ ID NO 251] | 0.0118 | 100 | 0.926 | 80 |
| ZGPPISIDLPLYLLRKMIEIEKQEKEKQQAANNALLLATI (C-terminal amide) [SEQ ID NO 245] | 0.0075 | 93 | 0.381 | 100 |
| ZGPPISIDLPLQLLRKMIEIEKQEKEKQQATTNARLLDTV (C-terminal amide) [SEQ ID NO 246] | 0.0388 | 100 | 1 | 33 |
| ZGPPISIDLPLQLLEKMIEIEKQEKEKQQAANNALLLATI (not fully specified; C-terminal amide) [SEQ ID NO 249] | 0.0122 | 92 | 1 | 50 |
| ZGPPISIDLPFQLLRKMIEIEKQEKEKQQAANNRLLLATI (not fully specified; C-terminal amide) [SEQ ID NO 250] | 0.0197 | 100 | 0.138 | 99 |
| ZGPPISIDLPLQLLEKMIEIEKQEKEKQQATTNARLLDRV (C-terminal amide) [SEQ ID NO 247] | 0.0188 | 100 | 1 | 34 |
